The values that follow come from paper PMC6145892, “Roquin targets mRNAs in a 3′-UTR-specific manner by different modes of regulation”.

Data set [1] has as its target T1, Roquin-1 zinc finger (Znf, CCCH) (UniProt Q4VGL6 411-454).
T1 chain: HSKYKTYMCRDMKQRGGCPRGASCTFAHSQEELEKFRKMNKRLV
The data set is described as follows: ITC; Zn2+; n=1.0; ITC at room temperature, RNA titrated into 10-40 uM protein; buffer 20 mM Tris pH 7.0, 150 mM NaCl, 25 uM ZnCl2, 2 mM TCEP, 0.02% azide (stated for Znf); NMR HSQC 50 uM protein, RT, 10% D2O. Particulars: protein: recombinant; tags: His6-GST removed by TEV; chain copies: 2; single-stranded. Background: Isothermal titration calorimetry measures the heat released or taken up as one component is titrated into another.

Data set [2] has as its target T1, Roquin-1 zinc finger (Znf, CCCH). Kind of data set: ITC; Zn2+; ITC at room temperature, RNA titrated into 10-40 uM protein; buffer 20 mM Tris pH 7.0, 150 mM NaCl, 25 uM ZnCl2, 2 mM TCEP, 0.02% azide (stated for Znf); NMR HSQC 50 uM protein, RT, 10% D2O. Particulars: protein: recombinant; tags: His6-GST removed by TEV; chain copies: 2; single-stranded.
The target is the same in data set [3]. The data set is described as follows: ITC; Zn2+; n=0.45; ITC at room temperature, RNA titrated into 10-40 uM protein; buffer 20 mM Tris pH 7.0, 150 mM NaCl, 25 uM ZnCl2, 2 mM TCEP, 0.02% azide (stated for Znf); NMR HSQC 50 uM protein, RT, 10% D2O. The settings on record: protein: recombinant; tags: His6-GST removed by TEV; chain copies: 2; single-stranded.
Data set [4] addresses T2, Roquin-1 ROQ domain (UniProt Q4VGL6 171-326).
T2 sequence: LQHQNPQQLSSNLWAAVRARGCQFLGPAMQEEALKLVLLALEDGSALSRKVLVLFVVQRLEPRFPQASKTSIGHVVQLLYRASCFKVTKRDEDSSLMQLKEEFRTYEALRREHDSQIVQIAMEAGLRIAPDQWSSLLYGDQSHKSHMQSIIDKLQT
Kind of data set: ITC; n=0.81; ITC at room temperature, RNA titrated into 10-40 uM protein; buffer 20 mM Tris pH 7.0, 150 mM NaCl, 25 uM ZnCl2, 2 mM TCEP, 0.02% azide (stated for Znf); NMR HSQC 50 uM protein, RT, 10% D2O. The settings on record: protein: recombinant; tags: His6-thioredoxin, TEV-removable; single-stranded, no imino signals.

In data set [5] the target is T1, Roquin-1 zinc finger (Znf, CCCH). Kind of data set: ITC; Zn2+; n=0.5; ITC at room temperature, RNA titrated into 10-40 uM protein; buffer 20 mM Tris pH 7.0, 150 mM NaCl, 25 uM ZnCl2, 2 mM TCEP, 0.02% azide (stated for Znf); NMR HSQC 50 uM protein, RT, 10% D2O. The settings on record: protein: recombinant; tags: His6-GST removed by TEV; chain copies: 2; single-stranded, no imino signals.

Data set [6] concerns the target T2, Roquin-1 ROQ domain. The data set is described as follows: ITC; complete loss of binding; ITC at room temperature, RNA titrated into 10-40 uM protein; buffer 20 mM Tris pH 7.0, 150 mM NaCl, 25 uM ZnCl2, 2 mM TCEP, 0.02% azide (stated for Znf); NMR HSQC 50 uM protein, RT, 10% D2O. Particulars: protein: recombinant; tags: His6-thioredoxin, TEV-removable; single-stranded.

Data set [7] concerns the target T1, Roquin-1 zinc finger (Znf, CCCH). Kind of data set: ITC; Zn2+; n=0.48; ITC at room temperature, RNA titrated into 10-40 uM protein; buffer 20 mM Tris pH 7.0, 150 mM NaCl, 25 uM ZnCl2, 2 mM TCEP, 0.02% azide (stated for Znf); NMR HSQC 50 uM protein, RT, 10% D2O. Particulars: protein: recombinant; tags: His6-GST removed by TEV; chain copies: 2; single-stranded.

B1: LBE 5'-half 9-mer (ssRNA)
RNA: UUUUAACAU
For B1, the Kd in data set [1] turned out to be 35.6 ± 6.8 µM.

B2: (CA)5 10-mer (ssRNA)
RNA: CACACACACA
On to B2, for which the binding result in data set [2] is “no binding”.

B3: (GU)5 10-mer (ssRNA)
RNA: GUGUGUGUGU
With B3, the Kd in data set [3] amounted to 52.5 ± 7.2 µM.

B4: LBE (Nfkbiz 3'-UTR 15-mer) (ssRNA)
RNA: UUUUAACAUUAUUUU
For the molecule B4, the dissociation constant Kd in data set [4] was 3.6 ± 0.4 µM; in data set [5], 26.3 ± 3.4 µM.

B5: LBE mutant (GCG) (ssRNA)
RNA: UUUUAAGCGUAUUUU
For the molecule B5, the binding result in data set [6] is “no binding”. Besides, the dissociation constant (Kd) in data set [7] came out at 21.4 ± 3.6 µM.

As a reminder, the Kd is the concentration at which binding is half-saturated.
